Laboratory results published in patent US20200040103A1.
Positions count from the first letter of the chain named.

B1: 8B7 (antibody, V domains shown)
VH: QSVKESEGGLFKPTDNLTLTCTVSGFSLSNYGVTWVRQAPGNGLEYIGFIGSSGSAYYASWAKSRSTITRNTNLNTVTLKMTSLTAADTATYFCARDDVGGGKSLDIWGPGTLVTVSS
VL: NIVMTQTPASVEVAVGGTVTIKCQASQSIGSYLSWYQQKPGQPPKLLIYDASNLASGVPSRFKGSGSGTQFTLSISDLECADAATYYCHQDYTSNNVDNTFGGGTEVVIK
B2: 9H5 (antibody, V domains shown)
VH: B1 VH with N30S, T34S, S53G, S55F, L113V, S118V
VL: NIVMTQTPASVEAAVGGTVTINCQASQSISSYLSWYQQKSGQRPKLLIFSASTLASGVPSRFTGSGSGTQFTLTISDLQCADAATYYCHQDYTSSNVDNTFGGGTEVVVK
B3: 10C8 (antibody, V domains shown)
VH: B1 VH with N30S, T34S, S53G, S55F, K103R, L113V
VL: NIVMTQTPASVEVAMGGTVIIKCQASQSISTYLSWYQQKPGQPPKLLIYSASTLASGVSSRFEGSGSGTQFTLTISGVQCADAATYYCHQDYTSNNVDNTFGGGTEVVVK
B4: 9F2 (antibody, V domains shown)
VH: B1 VH with N30S, T34S, S53G, A56P
VL: NIVMTQTPASVEVAVGGTVIIKCQASQSISNYLSWYHQKSGQRPRLLIYSASTLASGVPSRFKGSGSGTQFTLTISDLECADAATYYCHQDYTSNSVDNTFGGGTEVVVK
B5: 10H3 (antibody, V domains shown)
VH: QSVKESEGGLIKPTDTLTLTCTVSGFSLSTFAINWVRQAPGNGLEWIGAIGRGGSAYYASWAKSRSTITKNTNLNTVTLKMTRPTAADTATYFCARENAGSGWGELDIWGPGTLVTVSS
VL: AYEMTQTPASVEVAVGGTVTINCQASESISSDLAWYQQKPGQRPKLLIYAASTLASGVPSRFKGSGSGTEFTLSISGVQCADAATYYCQQGYTWNNVDNVFGGGTEVVVK
B6: 12B3 (antibody, V domains shown)
VH: QSLEESGGGLVKPGGTLTLTCKASGIDFNGGGIYWVRQAPGKGLEWIASIYPDHGSVDYANWVNGRFTISLDNAQNTVFLQLTSLTVADTATYFCARESGGSYYDLWGPGTLVTVSS
VL: AYDMTQTPASVEVAVGGTVTIKCQASQSISTYLAWYQQKPGQRPNLLIYKTSTLASGVPSRFRGSGSGTQFTLTISGVECADAATYYCQQGYSGSSVENTFGGGTEVVVK
B7: 1D10 (antibody, V domains shown)
VH: B6 VH with K22T, I26F, S49Y, V57A, N61T, L82M, S99T, Y103W
VL: AYDMTQTPVSVEAAVGGTVTIKCQASQSISSYLAWYQQKPGQPPKLLIYKASTLASGVSSRFKGSGSGTEFTLTISDLECADAATYYCQQGYSGSNVENTFGGGTEVVVK
B8: 8E11 (antibody, V domains shown)
VH: QEQLEESGGDLVKPEGSLTLTCTASGFSFSSSYWICWVRQAPGKGLEWIACVYGLDVNIYYASWTKGRFTISKTSSTTVTLQMTSLTAADTATYFCARGGGSADFGFDLWGPGTLVTVSS
VL: DVVMTQTASPVSAAVGGTVTIKCQASENIYSLLAWYQQKPGQPPKVLIYDASDLASGVPSRFKGSGSGTQFTLTISDLECADAATYYCQATAYGSSGNAFGGGTEVVVK
B9: 14E12 (antibody, V domains shown)
VH: EVQLVESGGGLVRPGRSLRLSCAASGFTFSDYYMAWVRQAPTKGLEWVASISYDGDTTYYRDSVKGRFTISRDNARSSLYLQMDSLRSDDTANYFCTTDGTIPAGSWFAYWGQGTLVTVSS
VL: DIQMTQSPASLSASLGETVTIECLASKNIYRNLAWYQQKPGKSPQFLISDASRLQDGVPSRFTGSDSGSQYSLKINSLQSEDVATYFCQQYHDYPYTFGAGTKLELK
B10: 14C8 (antibody, V domains shown)
VH: EVQLVESGGGLVQPGRSLKLSCTASGFTFSDYNMAWVRQAPKGGLEWVTTISYDAGRTYYRDSVKGRFTISRDNAKRTLSLQMDSLRSEDTATYYCATGIFNYGTDYFDYWGQGVMVTVSS
VL: DIQMTQSPASLSASLGETVTIQCRASEDIYSGLAWYQQKPGKSPQLLIYGATTLHDGVPSRFSGSGSGTQYSLKISSMHSEDEGIYFCHQGLSFPYTFGAGTKLELK

Target: recombinant human KLK5 (human) (UniProt Q9Y337)
Assay: pro-KLK1 coupled assay, 0.5 nM KLK5, 31.25 nM pro-KLK1, PFR-AMC

recombinant human KLK5 (human), sequence (Q9Y337 67-293): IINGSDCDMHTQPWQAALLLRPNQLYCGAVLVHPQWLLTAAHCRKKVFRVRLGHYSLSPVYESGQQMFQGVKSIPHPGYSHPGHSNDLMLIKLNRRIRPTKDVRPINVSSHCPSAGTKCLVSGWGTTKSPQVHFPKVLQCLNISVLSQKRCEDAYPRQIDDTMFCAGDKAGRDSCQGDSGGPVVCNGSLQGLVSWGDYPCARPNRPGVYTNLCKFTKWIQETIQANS

Binder	IC50 (read off the curve) [pM]
B1	100
B2	100 to 200
B3	100 to 200
B4	100 to 200
B5	100

Target: recombinant human KLK5 (human) (UniProt Q9Y337)
Assay: pro-KLK1 LC/MS assay, 0.5 nM KLK5, 300 nM pro-KLK1; box column 3 of 3; no unit printed, nM per text

Binder	IC50 [pM]
B1	106
B2	102
B3	149
B4	180
B5	130

Target: recombinant human KLK5 (human) (UniProt Q9Y337)
Assay: Kiapp assay curve, 0.500 nM KLK5, Z-VPR-pNA

Binder	IC50 (read off the curve) [pM]
B1	200
B2	300
B3	200
B4	300
B5	400

Target: recombinant human KLK5 (human) (UniProt Q9Y337)
Assay: Kiapp as the y-intercept of the line of IC50 (nM) versus KLK5 (nM), Z-VPR-pNA

Binder	Ki [pM]
B1	264
B2	402
B3	277
B4	377
B5	393

Target: recombinant human KLK5 (human) (UniProt Q9Y337)
Assay: pro-KLK7 coupled assay, 5 nM KLK5

Binder	IC50 [pM]
B1	920
B2	870
B3	1160
B4	930
B5	1170

Target: recombinant human KLK5 (human) (UniProt Q9Y337)
Assay: pro-KLK1 LC/MS assay, 0.5 nM KLK5

Binder	IC50 [pM]
B1	90
B2	190
B3	140
B4	140
B5	80

Target: recombinant human KLK5 (human) (UniProt Q9Y337)
Assay: pro-KLK7 LC/MS assay, 5 nM KLK5

Binder	IC50 [pM]
B1	1290
B2	1680
B3	1800
B4	1260
B5	970

Target: recombinant human KLK5 (human) (UniProt Q9Y337)
Assay: pro-KLK7 coupled assay, 5 nM KLK5, 125 nM pro-KLK7, suc-LLVY-AMC

Binder	IC50 (read off the curve) [pM]
B1	1000
B2	800
B3	1000
B4	900
B5	1000

Target: recombinant human KLK5 (human) (UniProt Q9Y337)
Assay: Kiapp assay curve, 0.125 nM KLK5, Z-VPR-pNA

Binder	IC50 (read off the curve) [pM]
B1	200
B2	200
B3	200
B4	200
B5	300

Target: recombinant human KLK5 (human) (UniProt Q9Y337)
Assay: SPR BIAcore T200, antibody captured by anti-human Fc, human KLK5 as analyte, 37 C

Binder	Kd [pM]	koff [s⁻¹]	kon [M⁻¹ s⁻¹]
B2	193	0.000137	705000

Target: recombinant human KLK5 (human) (UniProt Q9Y337)
Assay: direct activity assay, 5 nM KLK5, Boc-VPR-AMC

Binder	IC50 [pM]
B1	1100
B2	1080
B3	890
B4	1010
B5	1090

Target: recombinant human KLK5 (human) (UniProt Q9Y337)
Assay: pro-KLK1 LC/MS assay, 0.5 nM KLK5, 300 nM pro-KLK1; box column 1 of 3; no unit printed, nM per text

Binder	IC50 [pM]
B1	47.3
B2	138
B3	58.8
B4	108
B5	4.85

Target: recombinant human KLK5 (human) (UniProt Q9Y337)
Assay: KLK5 direct activity assay, 5 nM KLK5, Boc-VPR-AMC

Binder	IC50 (read off the curve) [pM]
B1	1000 to 2000
B2	800
B3	900
B4	1000 to 2000
B5	1000

Target: recombinant human KLK5 (human) (UniProt Q9Y337)
Assay: pro-KLK1 coupled assay, 0.5 nM KLK5

Binder	IC50 [pM]
B1	125
B2	139
B3	151
B4	137
B5	122

Target: recombinant human KLK5 (human) (UniProt Q9Y337)
Assay: pro-KLK7 LC/MS assay, 5 nM KLK5, 15 nM pro-KLK7, nM

Binder	IC50 [pM]
B1	1290
B2	1680
B3	1800
B4	1260
B5	968

Target: recombinant human KLK5 (human) (UniProt Q9Y337)
Assay: Kiapp assay curve, 0.063 nM KLK5, Z-VPR-pNA

Binder	IC50 (read off the curve) [pM]
B1	200
B2	200
B3	200
B4	200
B5	200

Target: recombinant human KLK5 (human), Q9Y337
Assay: cell-based or functional assay

recombinant human KLK5 (human), Q9Y337, sequence (Q9Y337 67-293): as above

Binder	inhibition of human KLK5 (screening) [%]
B6	< 50
B7	< 50

Target: recombinant human KLK5 (human) (UniProt Q9Y337)
Assay: pro-KLK1 LC/MS assay, 0.5 nM KLK5, 300 nM pro-KLK1; box column 2 of 3; no unit printed, nM per text

Binder	IC50 [pM]
B1	132
B2	343
B3	225
B4	137
B5	116

Target: recombinant human KLK5 (human) (UniProt Q9Y337)
Assay: Kiapp assay curve, 0.250 nM KLK5, Z-VPR-pNA

Binder	IC50 (read off the curve) [pM]
B1	200
B2	200
B3	200
B4	200
B5	300

Target: recombinant human KLK5 (human) (UniProt Q9Y337)
Assay: array SPR imaging (IBIS MX96), antibody amine-coupled, human KLK5 injected 0-300 nM, 25 C

Binder	koff [s⁻¹]
B8	0.000202
B1	0.000547
B2	0.000367
B3	6.16e-05
B4	0.000339
B9	0.000414
B5	0.000589
B10	0.000376

Target: recombinant human KLK5 (human) (UniProt Q9Y337)
Assay: Kiapp, KLK5 0.5-0.0625 nM, Z-VPR-pNA

Binder	Ki [pM]
B1	320
B2	425
B3	265
B4	430
B5	510

Target: recombinant human KLK5 (human) (UniProt Q9Y337)
Assay: cell-based or functional assay

Binder	inhibition of human KLK5 (screening) [%]
B8	< 90
B9	< 90
B10	< 90
